Test results as given in US20250026844A1 (SHANDONG SIMCERE BIOPHARMACEUTICAL, published 2025).
Where “and” joins values, the source holds several entries; their conditions need not be identical. Identical values can stand only once. Like-named read-outs stand apart in the source and are kept apart here.

Tests used:
[1] = molecular target: T1, human BCMA on cells (human, UniProt Q02223 1-184); experiment: FACS, U266 cells
T1 construct: whole, on cells; also called H929 cells; U266 cells
T1 sequence (looked up): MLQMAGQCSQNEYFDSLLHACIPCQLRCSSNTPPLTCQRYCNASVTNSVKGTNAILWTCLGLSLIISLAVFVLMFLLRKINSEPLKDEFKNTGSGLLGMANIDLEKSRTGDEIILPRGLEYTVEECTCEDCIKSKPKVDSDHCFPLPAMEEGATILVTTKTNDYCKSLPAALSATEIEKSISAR
Experimental: (§1) The desired cells were scale-up cultured in T-75 cell culture flasks to the logarithmic growth phase, and the cells were pipetted into a single cell suspension. After the cells were counted, the cells were centrifuged and the cell pellet was resuspended in FACS buffer (PBS+2% fetal calf serum) to 2×10⁶ cells per ml, and the suspension was added to the 96-well FACS reaction plate at 50 μl per well, then the sample to be tested of the candidate antibody was added at 50 μl per well and the mixture was incubated at 4° C. for 1 h. The obtained mixture was centrifuged and washed 3 times with a PBS buffer. Secondary antibody anti-hlgG(Fc) Alexa 647 (purchased from Jackson, catalog number: 109-605-098) was added at 50 μl/well, and incubated on ice for 1 h. The obtained mixture was centrifuged and washed 3 times with a PBS buffer. 100 μl of the mixture was taken for detection and result analysis by FACS (FACS Canto™, purchased from BD Company). Data analysis was performed by software (FlowJo) to obtain the mean fluorescence intensity (MFI) of the cells. Then, a software (GraphPad Prism8) was used for analysis, data fitting and EC50 calculation. BCMA-Lab05, BCMA-Lab06, and BCMA-Lab08 had poor binding to H929 and U266 cells, while the other antibodies performed better.

[2] = molecular target: T2, human BCMA-His protein (human, UniProt Q02223 1-54); experiment: ligand competition ELISA: plate coated with human BCMA protein 1 ug/mL, antibody titrated, blocked ligand hAPRIL-biotin 0.5 ug/mL, OD450
T2 construct: Bought protein; also called human BCMA protein; huBCMA-His; not shown: His tag
T2 sequence (looked up): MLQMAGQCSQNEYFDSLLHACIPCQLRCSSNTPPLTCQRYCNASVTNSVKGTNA
Experimental: The antigen protein was diluted with PBS to a final concentration of 1 μg/mL, and then added to a 96-well ELISA plate at 50 μl per well. The plate was sealed with a plastic film and incubated overnight at 4° C., the plate was washed twice with PBS the next day, and then a blocking solution [PBS+2% (w/v) BSA] was added for blocking at room temperature for 2 h. The blocking solution was discarded, the plate was washed 3 times with PBS, and 200 nM BCMA recombinant chimeric nanobody diluted gradiently or negative control antibody was added at 50 μl/well. hAPRIL-biotin (purchased from Acro, catalog number: APL-H82F5) was diluted to 0.5 μg/mL, with 50 μl per well. After incubation at 37° C. for 1.5 h, the plate was washed 3 times with PBS. HRP (horseradish peroxidase)-labeled secondary antibody (purchased from Sigma, catalog number: S2438-250 μg) was added, and incubated at 37° C. for 1 h, and the plate was washed 5 times with PBS. TMB substrate was added at 50 μl/well, and incubated at room temperature for 10 min, then a stop solution (1.0 M HCl) was added at 50 al/well. The OD450 nm values were read by an ELISA microplate reader (Multimode Plate Reader, EnSight, purchased from Perkin Elmer). BCMA-Lab05, BCMA-Lab06 and BCMA-Lab08 had average blocking effects, while the other antibodies had good blocking effects.

[3] = molecular target: T3, monkey BCMA-His protein (monkey, UniProt A0A2K5UD97 1-53); experiment: ELISA, plate coated with monkey BCMA-His 1 ug/mL, antibody titrated from 100 nM, HRP secondary antibody, OD450
T3 construct: Bought protein; also called monkey BCMA protein; CynoBCMA-his
Experimental: (§2) The specific method was as follows: Human BCMA protein (purchased from Acro, catalog number: BCA-H522y) and monkey BCMA protein (purchased from Acro, catalog number: BCA-C52H7) were diluted with PBS to a final concentration of 1 μg/mL, respectively, and then added to a 96-well ELISA plate at 50 al/well. The plate was sealed with a plastic film and incubated overnight at 4° C., the plate was washed twice with PBS the next day, and then a blocking solution [PBS+2% (w/v) BSA] was added for blocking at room temperature for 2 h. The blocking solution was discarded, the plate was washed 3 times with PBS, and 100 nM BCMA recombinant chimeric nanobody diluted gradiently or negative control antibody was added at 50 μl/well. After incubation at 37° C. for 2 h, the plate was washed 3 times with PBS. HRP (horseradish peroxidase)-labeled secondary antibody (purchased from Merck, catalog number: AP113P) was added, and incubated at 37° C. for 1 h, and the plate was washed 5 times with PBS. TMB substrate was added at 50 μl/well, and incubated at room temperature for 10 min, then a stop solution (1.0 M HCl) was added at 50 μl/well. The OD450 nm values were read by an ELISA microplate reader (Multimode Plate Reader, EnSight, purchased from Perkin Elmer). All antibodies bound to human BCMA protein. BCMA-Lab06 and BCMA-Lab07 had no cross-binding activity with monkey BCMA protein. […]

[4] = molecular target: T1, human BCMA on cells; experiment: FACS, H929 cells
Experimental: as §1
(§3) The specific method was the same as in Example 4(B).

[5] = molecular target: T2, human BCMA-His protein; experiment: SPR (Biacore), antibody captured on Protein A chip, BCMA-His in solution
Experimental: (§4) The flow cell was set to 25° C. The sample block was set to 16° C. Both were pretreated with the running buffer. In each cycle, an antibody to be detected was first captured with a Protein A chip, and then a single concentration of BCMA antigen protein was injected. The binding and dissociation processes of the antibody and the antigen protein were recorded, and finally Glycine pH 1.5 (GE Healthcare; BR-1003-54) was used to complete chip regeneration. Binding was measured by injecting different concentrations of BCMA-His in solution for 240 s with a flow rate of 30 μL/min. The concentration started from 200 nM (see the detailed results for the actual concentration in the test) and was diluted at 1:1, making a total of 5 concentrations. The dissociation phase was monitored for up to 600 s and was triggered by switching from sample solution to running buffer. The surface was regenerated by washing with a 10 mM glycine solution (pH 1.5) for 30 s at a flow rate of 30 μL/min. Bulk refractive index difference was corrected by subtracting the response obtained from the goat anti-human Fc surface. Blank injection was also subtracted (=double reference). For calculation of apparent KD and other kinetic parameters, Langmuir 1:1 model was used. The binding rate (Kₐ), dissociation rate (Kdis) and binding affinity (KD) of the recombinant candidate antibody to human BCMA protein are shown in the table, wherein REGN5459-hlgG1 antibody was used as a control.
According to the method in Example 5, Biacore was used to detect the affinity of the recombinant antibodies to human BCMA protein.

[6] = molecular target: T2, human BCMA-His protein; experiment: as above; remark: listed apart in the source
Experimental: as §4
The specific operating method referred to Example 5. The binding rate (Ka), dissociation rate (Kdis) and binding affinity (KD) of the humanized candidate nanobodies to human BCMA protein are shown Table 18, wherein REGN5459-hlgG1 antibody was used as a control.

[7] = molecular target: T1, human BCMA on cells; experiment: FACS, U266 cells; remark: listed apart in the source
Experimental: as §1, §3

[8] = molecular target: T1, human BCMA on cells; experiment: FACS, U266 cells; remark: listed apart in the source
Experimental: (§5) H929 cells and U266 cells were scale-up cultured in T-75 cell culture flasks to the logarithmic growth phase, and the cells were pipetted into a single cell suspension. After the cells were counted, the cells were centrifuged and the cell pellet was resuspended in FACS buffer (PBS+2% fetal calf serum) to 2×10⁶ cells per ml, and the suspension was added to the 96-well FACS reaction plate at 50 μl per well, REGN5459-hlgG1 and HPN217-hHcAb antibodies were used as primary antibodies, and APC-labeled goat anti-human IgG (H+L) secondary antibodies (purchased from Jackson, catalog number: 109-605-088) were detected and analyzed by FACS (FACS Canto™, purchased from BD Corporation). The results are shown in Table 4 and FIGS. 2A and 2B, and indicate that both H929 cells and U266 cells can bind to REGN5459-hlgG1 and HPN217-hHcAb antibodies.

[9] = molecular target: T1, human BCMA on cells; experiment: FACS, H929 cells; remark: listed apart in the source
Experimental: as §5

[10] = molecular target: T2, human BCMA-His protein; experiment: ELISA, plate coated with human BCMA-His 1 ug/mL, antibody titrated from 100 nM, HRP secondary antibody, OD450
Experimental: as §2

[11] = molecular target: T2, human BCMA-His protein; experiment: ligand competition ELISA: plate coated with human BCMA protein 1 ug/mL, antibody titrated, blocked ligand hAPRIL-biotin 0.5 ug/mL, OD450; remark: listed apart in the source
[12] = molecular target: T1, human BCMA on cells; experiment: FACS, H929 cells; remark: listed apart in the source
Experimental: as §1

[13] = molecular target: T3, monkey BCMA-His protein; experiment: ELISA, plate coated with monkey BCMA-His 1 ug/mL, antibody titrated from 100 nM, HRP secondary antibody, OD450; remark: listed apart in the source
Experimental: The binding activity of the control antibody to human BCMA-His protein (purchased from Acro, catalog number: BCA-H522y) and monkey BCMA-His protein (purchased from Acro, catalog number: BCA-C52H7) was detected by ELISA. The specific method was as follows: The antigen protein was diluted with PBS to a final concentration of 1 μg/mL, and then added to a 96-well ELISA plate at 50 μl per well. The plate was sealed with a plastic film and incubated overnight at 4° C., the plate was washed twice with PBS the next day, and then a blocking solution [PBS+2% (w/v) BSA] was added for blocking at room temperature for 2 h. The blocking solution was poured off and 50 μl of 100 nM serially diluted control antibody or negative control antibody was added to each well. After incubation at 37° C. for 2 h, the plate was washed 3 times with PBS. HRP (horseradish peroxidase)-labeled secondary antibody (purchased from Merck, catalog number: AP113P) was added, and incubated at 37° C. for 1 h, and the plate was washed 5 times with PBS. TMB substrate was added at 50 μl/well, and incubated at room temperature for 10 min, then a stop solution (1.0 M HCl) was added at 50 al/well. The OD450 nm values were read by an ELISA microplate reader (Multimode Plate Reader, EnSight, purchased from Perkin Elmer). The results are shown in Tables 2 and 3 and FIGS. 1A and 1B. […]

[14] = molecular target: T2, human BCMA-His protein; experiment: SPR (Biacore), antibody captured on Protein A chip, BCMA-His in solution; remark: listed apart in the source
Experimental: as §4

T3 sequence (A0A2K5UD97 entry or part of it limits assumed): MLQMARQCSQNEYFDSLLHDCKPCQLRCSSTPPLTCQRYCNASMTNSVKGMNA

B1: REGN5459-hIgG1 (antibody, V domains shown)
VH: EVQLVESGGGLVQPGGSLRLSCAASGFTFSNFWMTWVRQAPGKGLEWVANMNQDGSEKYYVDSVKGRFTISRDNAKSSLYLQMNSLRAEDTAVYYCARDREYCISTSCYDDFDYWGQGTLVTVSS
VL: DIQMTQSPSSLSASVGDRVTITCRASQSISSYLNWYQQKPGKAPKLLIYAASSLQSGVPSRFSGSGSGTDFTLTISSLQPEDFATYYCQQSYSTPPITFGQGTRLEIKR
notes: Control antibody; also called REGN5459-hlgG1; BCMA antibody
Question: Which EC50 [1] does the source give for B1 here?
Answer: The EC50 was 7.14 nM and 16.6 nM and 9.49 nM.

Question: And the “IC50 (read off the curve)” value [2]?
Answer: Its value is ~6 nM and ~5 nM.

Question: And the “EC50 (read off the curve)” value [3]?
Answer: Its value is roughly 0.1 nM.

Question: And the EC50 [4]?
Answer: Its EC50 is 9.39 nM and 13.2 nM.

Question: And the Kd [5]?
Answer: Its Kd is 0.267 nM.

Question: And the koff [5]?
Answer: The koff was 0.000197 s⁻¹.

Question: And the kon [5]?
Answer: The kon was 739000 M⁻¹ s⁻¹.

Question: And the Kd [6]?
Answer: The Kd was 0.208 nM.

Question: And the koff [6]?
Answer: The koff was 0.000162 s⁻¹.

Question: And the kon [6]?
Answer: Its kon is 781000 M⁻¹ s⁻¹.

Question: What about the EC50 [7] of the same binder?
Answer: The EC50 was 16.6 nM and 32.2 nM.

Question: What about the EC50 [8] of the same binder?
Answer: Its EC50 is 9.12 nM.

Question: What about the EC50 [9] of the same binder?
Answer: Its EC50 is 6.78 nM.

Question: And the “EC50 (read off the curve)” value [10]?
Answer: Its value is roughly 0.1 nM.

Question: What about the “IC50 (read off the curve)” value [11] of the same binder?
Answer: Its value is roughly 5 nM.

Question: What about the EC50 [12] of the same binder?
Answer: The EC50 was 5.24 nM and 9.39 nM and 6.46 nM.

Question: What about the “EC50 (read off the curve)” value [13] of the same binder?
Answer: Its value is roughly 0.1 nM.

Question: And the Kd [14]?
Answer: Its Kd is 0.233 nM.

Question: What about the koff [14] of the same binder?
Answer: Its koff is 0.000178 s⁻¹.

Question: What about the kon [14] of the same binder?
Answer: Its kon is 766000 M⁻¹ s⁻¹.
